This passage reports killing/stunting activity against corn earworm larvae, XptA2 held constant results from patent publication US20100041610A1.

For the test, the target named is Class A TC protein XptA2wi (Xenorhabdus nematophilus xwi). Kind of test: cell-based or functional assay.

TcdB2+TccC3 complex (non fused) yielded a killing/stunting activity against corn earworm larvae, XptA2 held constant at 250 ng/cm^2 of 7.8 ng/cm^2.
